# Measurements reported in publication PMC10786891, “Massively parallel profiling of RNA-targeting CRISPR-Cas13d”.
# T1: EsCas13d, nuclease-dead (Eubacterium siraeum, UniProt B0MS50, R295A;H300A;R849A;H854A)
# T1 sequence: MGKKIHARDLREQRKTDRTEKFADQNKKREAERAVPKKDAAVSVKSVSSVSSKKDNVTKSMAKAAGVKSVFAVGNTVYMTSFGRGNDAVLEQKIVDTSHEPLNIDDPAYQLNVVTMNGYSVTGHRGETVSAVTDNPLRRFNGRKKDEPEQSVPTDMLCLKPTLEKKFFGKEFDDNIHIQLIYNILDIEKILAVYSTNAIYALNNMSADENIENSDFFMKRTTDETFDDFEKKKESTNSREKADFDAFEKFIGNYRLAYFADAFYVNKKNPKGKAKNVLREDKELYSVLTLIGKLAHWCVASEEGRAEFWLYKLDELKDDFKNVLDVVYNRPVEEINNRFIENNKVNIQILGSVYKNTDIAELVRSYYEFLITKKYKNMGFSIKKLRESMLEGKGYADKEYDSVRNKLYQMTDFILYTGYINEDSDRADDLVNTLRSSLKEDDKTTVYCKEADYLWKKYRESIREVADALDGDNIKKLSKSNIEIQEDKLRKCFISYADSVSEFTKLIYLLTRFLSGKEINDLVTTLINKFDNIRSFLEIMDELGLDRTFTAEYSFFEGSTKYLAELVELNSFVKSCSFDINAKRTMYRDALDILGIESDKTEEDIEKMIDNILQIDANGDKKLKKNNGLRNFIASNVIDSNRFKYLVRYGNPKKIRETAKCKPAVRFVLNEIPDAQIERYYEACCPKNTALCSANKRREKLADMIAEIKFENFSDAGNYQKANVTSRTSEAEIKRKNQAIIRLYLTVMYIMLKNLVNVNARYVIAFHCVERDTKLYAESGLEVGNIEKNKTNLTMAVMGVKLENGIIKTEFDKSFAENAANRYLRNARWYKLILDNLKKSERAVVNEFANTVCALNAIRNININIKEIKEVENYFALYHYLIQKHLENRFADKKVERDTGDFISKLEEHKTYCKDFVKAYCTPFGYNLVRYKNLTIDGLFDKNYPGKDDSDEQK
# Target: T1, EsCas13d, nuclease-dead
# Experiment: crRNA (strand 1, pre-loaded); Mg2+; 40 mM Tris-HCl pH 7.5, 150 mM NaCl, 6 mM MgCl2, 1 mM DTT, 0.1% Tween-20, 0.2 mg/ml BSA; 25 C; 10 min per concentration, then washed
# Conditions: tags: His6-TwinStrep-SUMO cleaved; N-terminal SNAP kept (SNAP-Surface 488); label: 3' end held by stalled T7 RNA polymerase
row,Binder,Kd [nM]
1,"target 1 insG 3' of 16,insA 3' of 3 (mixed) RNA 1: CACCCGUGCAAAAAUGCAGGGGUCUAAAACUGAGCGGAUAACCUCUCUAUGG RNA 2: GGGAAUGGAUCCACAUCUACGAAUUCGUACCAUAGAGGAGGUUAUCCGCUACACCGAGAUCGGAAGAGCACACGU",17.7 ± 1.2
2,"target 1 G12C,G13A (mixed) RNA 1: CACCCGUGCAAAAAUGCAGGGGUCUAAAACUGAGCGGAUAACCUCUCUAUGG RNA 2: GGGAAUGGAUCCACAUCUACGAAUUCGUACCAUAGAGAACUUAUCCGCUCACCGAGAUCGGAAGAGCACACGU",9.5 ± 0.5
3,"target 1 insU 3' of 12,insG 3' of 7 (mixed) RNA 1: CACCCGUGCAAAAAUGCAGGGGUCUAAAACUGAGCGGAUAACCUCUCUAUGG RNA 2: GGGAAUGGAUCCACAUCUACGAAUUCGUACCAUAGAGAGGUUUAUCGCGCUCACCGAGAUCGGAAGAGCACACGU",6.8 ± 0.4
4,"target 1 U11C,G12C (mixed) RNA 1: CACCCGUGCAAAAAUGCAGGGGUCUAAAACUGAGCGGAUAACCUCUCUAUGG RNA 2: GGGAAUGGAUCCACAUCUACGAAUUCGUACCAUAGAGAGCCUAUCCGCUCACCGAGAUCGGAAGAGCACACGU",17.1 ± 2.1
5,"target 1 C4U,U10G (mixed) RNA 1: CACCCGUGCAAAAAUGCAGGGGUCUAAAACUGAGCGGAUAACCUCUCUAUGG RNA 2: GGGAAUGGAUCCACAUCUACGAAUUCGUACCAUAGAGAGGUGAUCCGUUCACCGAGAUCGGAAGAGCACACGU",18.5 ± 1.9
6,"target 1 A1U,C22U (mixed) RNA 1: CACCCGUGCAAAAAUGCAGGGGUCUAAAACUGAGCGGAUAACCUCUCUAUGG RNA 2: GGGAAUGGAUCCACAUCUACGAAUUCGUAUCAUAGAGAGGUUAUCCGCUCUCCGAGAUCGGAAGAGCACACGU",17 ± 2.6
7,"target 1 insG 3' of 10,insU 3' of 5 (mixed) RNA 1: CACCCGUGCAAAAAUGCAGGGGUCUAAAACUGAGCGGAUAACCUCUCUAUGG RNA 2: GGGAAUGGAUCCACAUCUACGAAUUCGUACCAUAGAGAGGUUGAUCCGUCUCACCGAGAUCGGAAGAGCACACGU",43 ± 11
8,"target 1 A1U,U11C (mixed) RNA 1: CACCCGUGCAAAAAUGCAGGGGUCUAAAACUGAGCGGAUAACCUCUCUAUGG RNA 2: GGGAAUGGAUCCACAUCUACGAAUUCGUACCAUAGAGAGGCUAUCCGCUCUCCGAGAUCGGAAGAGCACACGU",9.3 ± 1
9,"target 1 A1C,G13C (mixed) RNA 1: CACCCGUGCAAAAAUGCAGGGGUCUAAAACUGAGCGGAUAACCUCUCUAUGG RNA 2: GGGAAUGGAUCCACAUCUACGAAUUCGUACCAUAGAGACGUUAUCCGCUCCCCGAGAUCGGAAGAGCACACGU",47 ± 11
10,"target 1 U11A,G17A (mixed) RNA 1: CACCCGUGCAAAAAUGCAGGGGUCUAAAACUGAGCGGAUAACCUCUCUAUGG RNA 2: GGGAAUGGAUCCACAUCUACGAAUUCGUACCAUAAAGAGGAUAUCCGCUCACCGAGAUCGGAAGAGCACACGU",91 ± 13
11,"target 1 U19C,A20C (mixed) RNA 1: CACCCGUGCAAAAAUGCAGGGGUCUAAAACUGAGCGGAUAACCUCUCUAUGG RNA 2: GGGAAUGGAUCCACAUCUACGAAUUCGUACCCCAGAGAGGUUAUCCGCUCACCGAGAUCGGAAGAGCACACGU",94 ± 29
12,"target 1 insG 3' of 3,insC 3' of 3 (mixed) RNA 1: CACCCGUGCAAAAAUGCAGGGGUCUAAAACUGAGCGGAUAACCUCUCUAUGG RNA 2: GGGAAUGGAUCCACAUCUACGAAUUCGUACCAUAGAGAGGUUAUCCGCUGCCACCGAGAUCGGAAGAGCACACGU",11.4 ± 0.4
13,"target 1 insG 3' of 21,insG 3' of 9 (mixed) RNA 1: CACCCGUGCAAAAAUGCAGGGGUCUAAAACUGAGCGGAUAACCUCUCUAUGG RNA 2: GGGAAUGGAUCCACAUCUACGAAUUCGUACCGAUAGAGAGGUUAGUCCGCUCACCGAGAUCGGAAGAGCACACGU",70 ± 17
